{"source": "patent US20150274781A1", "about": "(UNIVERSITAET LEIPZIG, published 2015)", "note": "Where no end group is shown, it is not given here. [ ]: non-standard residue; d: D form. d1Nal = N[C@H](Cc1cccc2ccccc12)C(=O)O; Phg = N[C@H](C(=O)O)c1ccccc1; Nva = CCC[C@H](N)C(=O)O", "data": [{"target": "T1, human ghrelin receptor (human, UniProt Q92847 1-366)", "T1 sequence (Q92847 whole entry)": "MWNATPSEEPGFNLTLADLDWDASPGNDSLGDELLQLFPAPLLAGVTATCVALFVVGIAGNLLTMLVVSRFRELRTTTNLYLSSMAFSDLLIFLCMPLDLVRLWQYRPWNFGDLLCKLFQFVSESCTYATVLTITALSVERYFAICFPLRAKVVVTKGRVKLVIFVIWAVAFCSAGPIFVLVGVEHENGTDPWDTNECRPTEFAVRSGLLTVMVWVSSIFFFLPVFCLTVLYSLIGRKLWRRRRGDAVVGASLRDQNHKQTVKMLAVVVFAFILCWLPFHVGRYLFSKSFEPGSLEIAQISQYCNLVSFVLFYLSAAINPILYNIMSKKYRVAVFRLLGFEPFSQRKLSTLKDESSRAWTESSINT", "experiment": "cell-based or functional assay", "units": {"EC50, inverse agonistic activity, inositol trisphosphate turnover assay in COS-7 cells transfected with the ghrelin receptor": "µM"}, "values": [{"binder": "KXFXLL (2-naphthyl-D-alanine (D-2-Nal) at 2; D-Trp at 4; C-terminal amide)", "note": "[K-(D-2-Nal)-FwLL-NH2]", "EC50, inverse agonistic activity, inositol trisphosphate turnover assay in COS-7 cells transfected with the ghrelin receptor": 0.161, "Emax [Δ %], inverse agonistic activity, inositol trisphosphate turnover assay": "66 Δ %"}, {"binder": "KXFXLL (D-Phe at 2; D-Trp at 4; C-terminal amide)", "note": "[K-(D-Phe)-FwLL-NH2]", "EC50, inverse agonistic activity, inositol trisphosphate turnover assay in COS-7 cells transfected with the ghrelin receptor": 0.241, "Emax [Δ %], inverse agonistic activity, inositol trisphosphate turnover assay": "62 Δ %"}, {"binder": "KXFXLL (4,4'-biphenyl-D-alanine (D-Bip) at 2; D-Trp at 4; C-terminal amide)", "note": "[K-(D-Bip)-FwLL-NH2]", "EC50, inverse agonistic activity, inositol trisphosphate turnover assay in COS-7 cells transfected with the ghrelin receptor": 0.184, "Emax [Δ %], inverse agonistic activity, inositol trisphosphate turnover assay": "82 Δ %"}, {"binder": "KXFXLL (4-benzoyl-D-phenylalanine (D-Bpa) at 2; D-Trp at 4; C-terminal amide)", "note": "[K-(D-Bpa)-FwLL-NH2]", "EC50, inverse agonistic activity, inositol trisphosphate turnover assay in COS-7 cells transfected with the ghrelin receptor": 0.169, "Emax [Δ %], inverse agonistic activity, inositol trisphosphate turnover assay": "67 Δ %"}, {"binder": "K[dW]F[dW]LL-NH2 (N-terminus assumed; SMILES CC(C)C[C@H](NC(=O)[C@H](CC(C)C)NC(=O)[C@@H](Cc1c[nH]c2ccccc12)NC(=O)[C@H](Cc1ccccc1)NC(=O)[C@@H](Cc1c[nH]c2ccccc12)NC(=O)[C@@H](N)CCCCN)C(N)=O)", "note": "[KwFwLL-NH2]", "EC50, inverse agonistic activity, inositol trisphosphate turnover assay in COS-7 cells transfected with the ghrelin receptor": 0.0456, "Emax [Δ %], inverse agonistic activity, inositol trisphosphate turnover assay": "37 Δ %"}, {"binder": "KXFXLL (1-naphthyl-D-alanine (D-1-Nal) at 2; D-Trp at 4; C-terminal amide)", "note": "[K-(D-1-Nal)-FwLL-NH2]", "EC50, inverse agonistic activity, inositol trisphosphate turnover assay in COS-7 cells transfected with the ghrelin receptor": 0.0034, "Emax [Δ %], inverse agonistic activity, inositol trisphosphate turnover assay": "64 Δ %"}, {"binder": "KXFXLL (3,3-diphenyl-D-alanine (D-Dip) at 2; D-Trp at 4; C-terminal amide)", "note": "[K-(D-Dip)-FwLL-NH2]", "EC50, inverse agonistic activity, inositol trisphosphate turnover assay in COS-7 cells transfected with the ghrelin receptor": 0.0131, "Emax [Δ %], inverse agonistic activity, inositol trisphosphate turnover assay": "87 Δ %"}, {"binder": "KXFXLL (tert-butyl-D-phenylalanine (D-tBf) at 2; D-Trp at 4; C-terminal amide)", "note": "[K-(D-tBf)-FwLL-NH2]", "EC50, inverse agonistic activity, inositol trisphosphate turnover assay in COS-7 cells transfected with the ghrelin receptor": 0.624, "Emax [Δ %], inverse agonistic activity, inositol trisphosphate turnover assay": "76 Δ %"}, {"binder": "KXFXLL (beta-(3-benzothienyl)-D-alanine (D-Bth) at 2; D-Trp at 4; C-terminal amide)", "note": "[K-(D-Bth)-FwLL-NH2]", "Emax [Δ %], inverse agonistic activity, inositol trisphosphate turnover assay": "81 Δ %"}]}, {"target": "T1, human ghrelin receptor", "experiment": "cell-based or functional assay", "remark": "another data set of the same source", "units": {"EC50, agonistic activity, inositol trisphosphate turnover assay in COS-7 cells transfected with the ghrelin receptor": "µM"}, "values": [{"binder": "KXFXLL (D-Trp at 2; 2-naphthyl-D-alanine (D-2-Nal) at 4; C-terminal amide)", "note": "[KwF-(D-2-Nal)-LL-NH2]", "EC50, agonistic activity, inositol trisphosphate turnover assay in COS-7 cells transfected with the ghrelin receptor": 0.0126}, {"binder": "KXFXLL (D-Trp at 2; 1-naphthyl-D-alanine (D-1-Nal) at 4; C-terminal amide)", "note": "[KwF-(D-1-Nal)-LL-NH2]", "EC50, agonistic activity, inositol trisphosphate turnover assay in COS-7 cells transfected with the ghrelin receptor": 0.0179}]}, {"target": "T1, human ghrelin receptor", "experiment": "cell-based or functional assay", "remark": "another data set of the same source", "units": {"EC50, inverse agonistic activity, inositol trisphosphate turnover assay in COS-7 cells transfected with the ghrelin receptor": "µM", "x-fold (EC50) compared to K-(D-1-Nal)-FwLL-NH2": "fold", "x-fold (Emax) compared to K-(D-1-Nal)-FwLL-NH2": "fold"}, "values": [{"binder": "KXXXLL (1-naphthyl-D-alanine (D-1-Nal) at 2; D-Phe at 3; D-Trp at 4; C-terminal amide)", "note": "[K-(D-1-Nal)-(D-Phe)-wLL-NH2]", "EC50, inverse agonistic activity, inositol trisphosphate turnover assay in COS-7 cells transfected with the ghrelin receptor": 0.12, "Emax [Δ %], inverse agonistic activity, inositol trisphosphate turnover assay": "58 Δ %", "x-fold (EC50) compared to K-(D-1-Nal)-FwLL-NH2": 35.2, "x-fold (Emax) compared to K-(D-1-Nal)-FwLL-NH2": 0.9}, {"binder": "KXXXLL (1-naphthyl-D-alanine (D-1-Nal) at 2; 3-cyclohexyl-L-alanine (L-Cha) at 3; D-Trp at 4; C-terminal amide)", "note": "[K-(D-1-Nal)-(L-Cha)-wLL-NH2]", "EC50, inverse agonistic activity, inositol trisphosphate turnover assay in COS-7 cells transfected with the ghrelin receptor": 0.0968, "Emax [Δ %], inverse agonistic activity, inositol trisphosphate turnover assay": "85 Δ %", "x-fold (EC50) compared to K-(D-1-Nal)-FwLL-NH2": 28.5, "x-fold (Emax) compared to K-(D-1-Nal)-FwLL-NH2": 1.3}, {"binder": "KXXXLL (1-naphthyl-D-alanine (D-1-Nal) at 2; tert-butyl-L-phenylalanine (L-tBf) at 3; D-Trp at 4; C-terminal amide)", "note": "[K-(D-1-Nal)-(L-tBf)-wLL-NH2]", "EC50, inverse agonistic activity, inositol trisphosphate turnover assay in COS-7 cells transfected with the ghrelin receptor": 0.124, "Emax [Δ %], inverse agonistic activity, inositol trisphosphate turnover assay": "84 Δ %", "x-fold (EC50) compared to K-(D-1-Nal)-FwLL-NH2": 36.5, "x-fold (Emax) compared to K-(D-1-Nal)-FwLL-NH2": 1.3}, {"binder": "K[d1Nal][Phg][dW]LL-NH2 (N-terminus assumed; SMILES CC(C)C[C@H](NC(=O)[C@H](CC(C)C)NC(=O)[C@@H](Cc1c[nH]c2ccccc12)NC(=O)[C@@H](NC(=O)[C@@H](Cc1cccc2ccccc12)NC(=O)[C@@H](N)CCCCN)c1ccccc1)C(N)=O)", "note": "[K-(D-1-Nal)-(L-Phg)-wLL-NH2]", "EC50, inverse agonistic activity, inositol trisphosphate turnover assay in COS-7 cells transfected with the ghrelin receptor": "> 1", "x-fold (EC50) compared to K-(D-1-Nal)-FwLL-NH2": "> 290"}, {"binder": "K[d1Nal][Nva][dW]LL-NH2 (N-terminus assumed; SMILES CCC[C@H](NC(=O)[C@@H](Cc1cccc2ccccc12)NC(=O)[C@@H](N)CCCCN)C(=O)N[C@H](Cc1c[nH]c2ccccc12)C(=O)N[C@@H](CC(C)C)C(=O)N[C@@H](CC(C)C)C(N)=O)", "note": "[K-(D-1-Nal)-(L-Nva)-wLL-NH2]", "EC50, inverse agonistic activity, inositol trisphosphate turnover assay in COS-7 cells transfected with the ghrelin receptor": 0.498, "Emax [Δ %], inverse agonistic activity, inositol trisphosphate turnover assay": "71 Δ %", "x-fold (EC50) compared to K-(D-1-Nal)-FwLL-NH2": 146, "x-fold (Emax) compared to K-(D-1-Nal)-FwLL-NH2": 1.1}, {"binder": "KXFXLL (1-naphthyl-D-alanine (D-1-Nal) at 2; D-Trp at 4; C-terminal amide)", "note": "[K-(D-1-Nal)-FwLL-NH2]", "EC50, inverse agonistic activity, inositol trisphosphate turnover assay in COS-7 cells transfected with the ghrelin receptor": 0.0034, "Emax [Δ %], inverse agonistic activity, inositol trisphosphate turnover assay": "64 Δ %"}]}]}
